Measured values from PMC3315481, “Phosphorylation of the Drosophila melanogaster RNA–Binding Protein HOW by MAPK/ERK Enhances Its Dimerization and Activity” (PLoS Genetics, 2012).

Target: the molecule itself
Assay: co-IP; S2R+ cells co-transfected with GFP-fused and HA-tagged HOW(L) variants (or gfp with how(l)^WT-HA); lysis in 1% NP40 buffer (50 mM Tris pH 7.5, 100 mM NaCl); IP with mouse anti-GFP on protein A/G beads 1-2 h at 4°C; Western blot with anti-HOW; co-precipitated HA protein normalised to its crude level and to the precipitated GFP protein

Protein	co-immunoprecipitated HA protein, normalised, relative to HOW(L)^WT
Held Out Wings, long isoform, phospho-mutant T59A T64A (HOW(L)^TTAA) (natural protein, Drosophila melanogaster, UniProt O01367 1-405, looked up, Held Out Wings (HOW), isoform HOW(L), Drosophila melanogaster, with T59 and T64 mutated to alanine; Two differently tagged copies met in the co-IP: one fused to GFP (bait, vector pTGW) and one tagged with HA (prey, vector pTWH); also called HOW^TTAA; gfp-how(l)^TTAA; source: S2R+ cells, co-transfected, in lysate) MSVCESKAVVQQQLQQHLQQQAAAAVVAVAQQQQAQAQAQAQAQAQQQQQAPQVVVPMAPQHLAPQQQQQSTQSIADYLAQLLKDRKQLAAFPNVFTHVERLLDEEIARVRASLFQINGVKKEPLTLPEPEGSVVTMNEKVYVPVREHPDFNFVGRILGPRGMTAKQLEQETGCKIMVRGKGSMRDKKKEDANRGKPNWEHLSDDLHVLITVEDTENRATVKLAQAVAEVQKLLVPQAEGEDELKKRQLMELAIINGTYRDTTAKSVAVCDEEWRRLVAASDSRLLTSTGLPGLAAQIRAPAAAPLGAPLILNPRMTVPTTAASILSAQAAPTAAFDQTGHGMIFAPYDYANYAALAGNPLLTEYADHSVGAIKQQRRLATNREHPYQRATVGVPAKPAGFIEIQ	0.56 ± 0.14
Held Out Wings, long isoform, dimerization mutant E106G (HOW(L)^EG) (natural protein, Drosophila melanogaster, UniProt O01367 1-405, looked up, Held Out Wings (HOW), isoform HOW(L), Drosophila melanogaster, with E106 mutated to glycine; Two differently tagged copies met in the co-IP: one fused to GFP (bait, vector pTGW) and one tagged with HA (prey, vector pTWH); also called HOW^EG; gfp-how(l)^EG; source: S2R+ cells, co-transfected, in lysate) MSVCESKAVVQQQLQQHLQQQAAAAVVAVAQQQQAQAQAQAQAQAQQQQQAPQVVVPMTPQHLTPQQQQQSTQSIADYLAQLLKDRKQLAAFPNVFTHVERLLDEGIARVRASLFQINGVKKEPLTLPEPEGSVVTMNEKVYVPVREHPDFNFVGRILGPRGMTAKQLEQETGCKIMVRGKGSMRDKKKEDANRGKPNWEHLSDDLHVLITVEDTENRATVKLAQAVAEVQKLLVPQAEGEDELKKRQLMELAIINGTYRDTTAKSVAVCDEEWRRLVAASDSRLLTSTGLPGLAAQIRAPAAAPLGAPLILNPRMTVPTTAASILSAQAAPTAAFDQTGHGMIFAPYDYANYAALAGNPLLTEYADHSVGAIKQQRRLATNREHPYQRATVGVPAKPAGFIEIQ	0.13 ± 0.04
